Values of other authors, collected in publication PMC7212196.

Molecular target: soluble IL-6 receptor (Homo sapiens) (UniProt P08887)
UniProt P08887, sequence (P08887 20-355): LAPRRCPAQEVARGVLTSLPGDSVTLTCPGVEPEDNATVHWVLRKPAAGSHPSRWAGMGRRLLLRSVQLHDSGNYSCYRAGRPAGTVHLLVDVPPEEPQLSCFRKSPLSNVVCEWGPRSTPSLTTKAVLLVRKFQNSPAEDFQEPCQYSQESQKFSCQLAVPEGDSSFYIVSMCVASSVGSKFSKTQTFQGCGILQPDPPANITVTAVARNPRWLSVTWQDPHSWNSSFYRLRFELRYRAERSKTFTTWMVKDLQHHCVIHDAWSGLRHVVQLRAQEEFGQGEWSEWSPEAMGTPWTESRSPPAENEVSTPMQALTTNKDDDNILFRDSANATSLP

IL-6, sequence (P05231 30-212): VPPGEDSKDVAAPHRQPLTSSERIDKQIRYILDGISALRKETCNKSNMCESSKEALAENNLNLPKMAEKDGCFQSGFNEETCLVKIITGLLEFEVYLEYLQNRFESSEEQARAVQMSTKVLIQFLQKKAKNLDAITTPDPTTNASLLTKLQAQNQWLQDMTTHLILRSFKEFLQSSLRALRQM

In the case of IL-6 (from UniProt P05231), the Kd is listed as 5 nM.
